Assay results from patent publication US20250043302A1, “MUTATED HYDROXYPHENYLPYRUVATE DIOXYGENASE POLYPEPTIDE, AND CODING GENE AND USE THEREOF” (BEIJING DABEINONG BIOTECHNOLOGY CO., LTD., priority 2021, published 2025).

Key:
Type in all cases: in vivo
[1] = test system: Arabidopsis thaliana T1 plants; test: Isoxaflutole tolerance of transgenic Arabidopsis thaliana T1 plants (spray, bleached leaf area grade, damage score); set-up: Scores (pesticide damage): scale not given here; conditions: spray, Arabidopsis thaliana T1 plants; for Classification and statistics of the grade of pesticide damage: Grade 0 (number of plants) / Classification and statistics of the grade of pesticide damage: Grade 1 (number of plants) / Classification and statistics of the grade of pesticide damage: Grade 2 (number of plants) / Classification and statistics of the grade of pesticide damage: Grade 3 (number of plants): 16 plants
Summary of the method: (§1)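 T1 transformants selected by glufosinate; 18-day-old plants, with empty-vector and wild-type controls, sprayed with topramezone (25–200 g ai/ha), isoxaflutole (35–280 g ai/ha) or mesotrione (52.5–420 g ai/ha), water as 0×. Bleached leaf area fraction scored at 7 DAT as grades 0–3.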

[2] = test system: Arabidopsis thaliana T1 plants; test: Mesotrione tolerance of transgenic Arabidopsis thaliana T1 plants (spray, bleached leaf area grade, damage score); set-up: Scores: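 damage score 0-100 computed as Σ(N×S)/(T×M)×100 over grades 0-3 with higher meaning more damage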; conditions: Arabidopsis thaliana T1 plants; for Grade 0 (classification and statistics of the grade of pesticide damage; number of plants) / Grade 1 (classification and statistics of the grade of pesticide damage; number of plants) / Grade 2 (classification and statistics of the grade of pesticide damage; number of plants) / Grade 3 (classification and statistics of the grade of pesticide damage; number of plants): 16 plants
Summary of the method: as §1

[3] = test system: Arabidopsis thaliana T1 plants; test: Topramezone tolerance of transgenic Arabidopsis thaliana T1 plants (spray, bleached leaf area grade, damage score); conditions: 7 DAT, Table 4; for Classification and statistics of the grade of pesticide damage: Grade 0 / Classification and statistics of the grade of pesticide damage: Grade 1 / Classification and statistics of the grade of pesticide damage: Grade 2 / Classification and statistics of the grade of pesticide damage: Grade 3: number of plants; for Scores: pesticide damage score 0-100
Summary of the method: as §1

[4] = isoxaflutole 35 g ai/ha (0.5x field concentration)
[5] = isoxaflutole 70 g ai/ha (1x field concentration)

Molecule	Resistance evaluation [1, 4]	Scores (pesticide damage) [1, 4]	Classification and statistics of the grade of pesticide damage: Grade 0 (number of plants) [1, 4]	Classification and statistics of the grade of pesticide damage: Grade 1 (number of plants) [1, 4]	Classification and statistics of the grade of pesticide damage: Grade 2 (number of plants) [1, 4]	Classification and statistics of the grade of pesticide damage: Grade 3 (number of plants) [1, 4]	Resistance evaluation [1, 5]	Scores (pesticide damage) [1, 5]	Classification and statistics of the grade of pesticide damage: Grade 0 (number of plants) [1, 5]	Classification and statistics of the grade of pesticide damage: Grade 1 (number of plants) [1, 5]	Classification and statistics of the grade of pesticide damage: Grade 2 (number of plants) [1, 5]	Classification and statistics of the grade of pesticide damage: Grade 3 (number of plants) [1, 5]	Resistance evaluation ([2]; mesotrione 52.5 g ai/ha)	Scores ([2]; mesotrione 52.5 g ai/ha)	Grade 0 (classification and statistics of the grade of pesticide damage; number of plants) ([2]; mesotrione 52.5 g ai/ha)	Grade 1 (classification and statistics of the grade of pesticide damage; number of plants) ([2]; mesotrione 52.5 g ai/ha)	Grade 2 (classification and statistics of the grade of pesticide damage; number of plants) ([2]; mesotrione 52.5 g ai/ha)	Grade 3 (classification and statistics of the grade of pesticide damage; number of plants) ([2]; mesotrione 52.5 g ai/ha)	Resistance evaluation ([2]; mesotrione 105 g ai/ha)	Scores ([2]; mesotrione 105 g ai/ha)	also measured
MsHPPDm-F372A-02: nucleotide sequence encoding Medicago sativa HPPD with F372A; vector DBN11735 (nucleic acid, MsHPPDm-F372A-02 Nucleotide Sequence, vector DBN11735) DNA: ATGGCTATTGAAACCGAAACACAAACTCAGACTGGATTTAAACTGGTAGGGTTCAAGAATTTCGTTAGGGCTAATCCCAAGTCTGATCGTTTTAAGGTCAAGAGGTTCCACCACGTGGAGTTCTGGTGCACTGATGCAACCAACACGGCGCGGCGTTTTTCACATGGTCTTGGAATGCCTATTGTTGCAAAATCCGACCTCTCCACGGGGAACCAAACACACGCCTCTTACCTGCTACGGAGTGGTGACTTGAACTTCCTCTTCAGCGCCGCCTACTCACCCTCCATATCGTTGTCTTCACCATCCTCGACCGCAGCAATTCCTACATTTTCTGCGAGCAACTGCTTCTCTTTCTCTGCCAGTCATGGCCTCGCCGTCAGAGCAGTGGCCGTTGAAGTAGAGGATGCTGAACTTGCTTTTACAACTTCAGTGAATAATGGAGCAATACCGAGCAGTCCGCCGGTCATACTTGAGAATCATGTGAAGCTAGCGGAGGTGAGGCTTTATGGGGACGTCGTTTTAAGATATGTCAGCTACAATGATCCAAACCCCAATCAAAATCCAAATTTGTTGTTCCTTCCTGGCTTCGAGCGTGTTAGCGATGAATCTTCAAACTCTTCACTGGATTTTGGAATCAGACGGTTGGATCATGCTGTTGGAAATGTTCCTGAACTCTCGAGCGCTGTGAAATATGTGAAGGACTTCACCGGTTTTCATGAATTTGCTGAGTTTACTGCAGAAGATGTGGGTACATCAGAGAGTGGCTTGAATTCCGTGGTGCTCGCCAACAACGAGGAGACTGTACTCTTACCAATGAATGAGCCAGTCTATGGCACCAAGCGTAAATCTCAAATTGAGACATATTTGGAGCACAATGAAGGAGCTGGACTTCAGCATCTCGCGCTGAAGAGTGAGGACATCTTCCGCACCCTACGGGAGATGAGGAAAAGAAGTGGTGTTGGTGGGTTTGAATTCATGCCATCACCTCCTGTCACCTACTACAGGAACCTGAAGAACAGAGTTGGTGATGTACTTTCGGACGAGCAGATAAAGGAATGTGAAGAGTTGGGGATTTTGGTTGATAGAGATGATCAAGGAACACTCCTGCAGATTGCCACAAAACCAATTGGCGACCGCCCCACTATCTTCATAGAGATCATCCAGAGGGTGGGGTGCATGCTCAAAGACGAGGAAGGGAAGGAGTACCAGAAGGGCGGCTGTGGTGGTTTTGGGAAAGGAAACTTTTCTGAGTTATTCAAATCAATTGAAGAGTATGAGAAGACGCTTGAAACGCGTCGCACTGCTTGA	Poorly	54	0	6	10	0	Non-resistant	100	0	0	0	16	Poorly resistant	52	0	9	5	2	Non-resistant	100	Grade 0 (classification and statistics of the grade of pesticide damage; number of plants) ([2]; mesotrione 105 g ai/ha): 0; Grade 1 (classification and statistics of the grade of pesticide damage; number of plants) ([2]; mesotrione 105 g ai/ha): 0; Grade 2 (classification and statistics of the grade of pesticide damage; number of plants) ([2]; mesotrione 105 g ai/ha): 0; Grade 3 (classification and statistics of the grade of pesticide damage; number of plants) ([2]; mesotrione 105 g ai/ha): 16; Classification and statistics of the grade of pesticide damage: Grade 0 ([3]; topramezone 25 g ai/ha (1×)): 5; Classification and statistics of the grade of pesticide damage: Grade 1 ([3]; topramezone 25 g ai/ha (1×)): 7; Classification and statistics of the grade of pesticide damage: Grade 2 ([3]; topramezone 25 g ai/ha (1×)): 4; Classification and statistics of the grade of pesticide damage: Grade 3 ([3]; topramezone 25 g ai/ha (1×)): 0; Classification and statistics of the grade of pesticide damage: Grade 0 ([3]; topramezone 100 g ai/ha (4×)): 0; Classification and statistics of the grade of pesticide damage: Grade 1 ([3]; topramezone 100 g ai/ha (4×)): 4; Classification and statistics of the grade of pesticide damage: Grade 2 ([3]; topramezone 100 g ai/ha (4×)): 9; Classification and statistics of the grade of pesticide damage: Grade 3 ([3]; topramezone 100 g ai/ha (4×)): 3; Scores ([3]; topramezone 25 g ai/ha (1×)): 31; Scores ([3]; topramezone 100 g ai/ha (4×)): 65; Resistance evaluation ([3]; topramezone 25 g ai/ha (1×)): moderately; Resistance evaluation ([3]; topramezone 100 g ai/ha (4×)): poorly
MsHPPDm-F383W-02: nucleotide sequence encoding Medicago sativa HPPD with F383W; vector DBN11736 (nucleic acid, MsHPPDm-F383W-02 Nucleotide Sequence, vector DBN11736) DNA: ATGGCTATTGAAACCGAAACACAAACTCAGACTGGATTTAAACTGGTAGGGTTCAAGAATTTCGTTAGGGCTAATCCCAAGTCTGATCGTTTTAAGGTCAAGAGGTTCCACCACGTGGAGTTCTGGTGCACTGATGCAACCAACACGGCGCGGCGTTTTTCACATGGTCTTGGAATGCCTATTGTTGCAAAATCCGACCTCTCCACGGGGAACCAAACACACGCCTCTTACCTGCTACGGAGTGGTGACTTGAACTTCCTCTTCAGCGCCGCCTACTCACCCTCCATATCGTTGTCTTCACCATCCTCGACCGCAGCAATTCCTACATTTTCTGCGAGCAACTGCTTCTCTTTCTCTGCCAGTCATGGCCTCGCCGTCAGAGCAGTGGCCGTTGAAGTAGAGGATGCTGAACTTGCTTTTACAACTTCAGTGAATAATGGAGCAATACCGAGCAGTCCGCCGGTCATACTTGAGAATCATGTGAAGCTAGCGGAGGTGAGGCTTTATGGGGACGTCGTTTTAAGATATGTCAGCTACAATGATCCAAACCCCAATCAAAATCCAAATTTGTTGTTCCTTCCTGGCTTCGAGCGTGTTAGCGATGAATCTTCAAACTCTTCACTGGATTTTGGAATCAGACGGTTGGATCATGCTGTTGGAAATGTTCCTGAACTCTCGAGCGCTGTGAAATATGTGAAGGACTTCACCGGTTTTCATGAATTTGCTGAGTTTACTGCAGAAGATGTGGGTACATCAGAGAGTGGCTTGAATTCCGTGGTGCTCGCCAACAACGAGGAGACTGTACTCTTACCAATGAATGAGCCAGTCTATGGCACCAAGCGTAAATCTCAAATTGAGACATATTTGGAGCACAATGAAGGAGCTGGACTTCAGCATCTCGCGCTGAAGAGTGAGGACATCTTCCGCACCCTACGGGAGATGAGGAAAAGAAGTGGTGTTGGTGGGTTTGAATTCATGCCATCACCTCCTGTCACCTACTACAGGAACCTGAAGAACAGAGTTGGTGATGTACTTTCGGACGAGCAGATAAAGGAATGTGAAGAGTTGGGGATTTTGGTTGATAGAGATGATCAAGGAACACTCCTGCAGATTTTTACAAAACCAATTGGCGACCGCCCCACTATCTGGATAGAGATCATCCAGAGGGTGGGGTGCATGCTCAAAGACGAGGAAGGGAAGGAGTACCAGAAGGGCGGCTGTGGTGGTTTTGGGAAAGGAAACTTTTCTGAGTTATTCAAATCAATTGAAGAGTATGAGAAGACGCTTGAAACGCGTCGCACTGCTTGA	Non-resistant	88	0	0	6	10	Non-resistant	100	0	0	0	16	Non-resistant	100	0	0	0	16	Non-resistant	100	Grade 0 (classification and statistics of the grade of pesticide damage; number of plants) ([2]; mesotrione 105 g ai/ha): 0; Grade 1 (classification and statistics of the grade of pesticide damage; number of plants) ([2]; mesotrione 105 g ai/ha): 0; Grade 2 (classification and statistics of the grade of pesticide damage; number of plants) ([2]; mesotrione 105 g ai/ha): 0; Grade 3 (classification and statistics of the grade of pesticide damage; number of plants) ([2]; mesotrione 105 g ai/ha): 16; Classification and statistics of the grade of pesticide damage: Grade 0 ([3]; topramezone 25 g ai/ha (1×)): 0; Classification and statistics of the grade of pesticide damage: Grade 1 ([3]; topramezone 25 g ai/ha (1×)): 0; Classification and statistics of the grade of pesticide damage: Grade 2 ([3]; topramezone 25 g ai/ha (1×)): 4; Classification and statistics of the grade of pesticide damage: Grade 3 ([3]; topramezone 25 g ai/ha (1×)): 12; Classification and statistics of the grade of pesticide damage: Grade 0 ([3]; topramezone 100 g ai/ha (4×)): 0; Classification and statistics of the grade of pesticide damage: Grade 1 ([3]; topramezone 100 g ai/ha (4×)): 0; Classification and statistics of the grade of pesticide damage: Grade 2 ([3]; topramezone 100 g ai/ha (4×)): 0; Classification and statistics of the grade of pesticide damage: Grade 3 ([3]; topramezone 100 g ai/ha (4×)): 16; Scores ([3]; topramezone 25 g ai/ha (1×)): 92; Scores ([3]; topramezone 100 g ai/ha (4×)): 100; Resistance evaluation ([3]; topramezone 25 g ai/ha (1×)): non-resistant (non-resistant plants (scores 68-100)); Resistance evaluation ([3]; topramezone 100 g ai/ha (4×)): non-resistant (non-resistant plants (scores 68-100))
